Experimental findings from US20200405868A1, “GEL-FORMING POLYPEPTIDES” (priority 2018, published 2020) are described below.

Experiment [1] addresses GnRH receptor (GnRHR or LHRHR) (UniProt P30968). The experiment is described as follows: cell-based or functional assay.
The target in experiment [2] is bradykinin receptor 2 (BDKRB2) (UniProt P30411). The experiment is described as follows: cell-based or functional assay.
In experiment [3] the target is melanocortin receptor 1 (MC1R) (UniProt Q01726). The experiment is described as follows: cell-based or functional assay.
For experiment [4], the target named is melanocortin receptor 4 (MC4R) (UniProt P32245). The experiment is described as follows: cell-based or functional assay.
Experiment [5] has as its target PTH receptor 1 (PTHR1) (UniProt Q03431). The experiment is described as follows: cell-based or functional assay.
For experiment [6], the target named is FITC-labled GnRH molecule (a peptide) (UniProt P01148). The experiment is described as follows: Centricon filter release assay: FITC-GnRH that passed into the lower chamber with nongel-forming peptide at 1 mg/10 ml (control without carrier 72.50).
For experiment [7] the target is unchanged. The experiment is described as follows: Centricon filter release assay: FITC-GnRH that passed into the lower chamber with nongel-forming peptide at 1 mg/100 ml (control without carrier 72.50).
For experiment [8], the target named is kappa opioid receptor (OPRK1) (UniProt P41145). The experiment is described as follows: cell-based or functional assay.

A value given as a limit tells only on which side of the number the result lay.

Chain of melanocortin receptor 1 (MC1R) (Q01726 whole entry): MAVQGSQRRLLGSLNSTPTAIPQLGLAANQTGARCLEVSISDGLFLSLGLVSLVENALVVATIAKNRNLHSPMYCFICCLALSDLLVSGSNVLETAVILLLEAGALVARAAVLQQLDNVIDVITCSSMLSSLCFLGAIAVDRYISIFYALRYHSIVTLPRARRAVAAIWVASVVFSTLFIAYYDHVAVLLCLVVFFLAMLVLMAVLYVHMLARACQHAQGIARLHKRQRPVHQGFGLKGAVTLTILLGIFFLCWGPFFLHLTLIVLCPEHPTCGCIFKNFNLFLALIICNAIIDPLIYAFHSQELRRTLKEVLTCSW
Chain of melanocortin receptor 4 (MC4R) (P32245 whole entry): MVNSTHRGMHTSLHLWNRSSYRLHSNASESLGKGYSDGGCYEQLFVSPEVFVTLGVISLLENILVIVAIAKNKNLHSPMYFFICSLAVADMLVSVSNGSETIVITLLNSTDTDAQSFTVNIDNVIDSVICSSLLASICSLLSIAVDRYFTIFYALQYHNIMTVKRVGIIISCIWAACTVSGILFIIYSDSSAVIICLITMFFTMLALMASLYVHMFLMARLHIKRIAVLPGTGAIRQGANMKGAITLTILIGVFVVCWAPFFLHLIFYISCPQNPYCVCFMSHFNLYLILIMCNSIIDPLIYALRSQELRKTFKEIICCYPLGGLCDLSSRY
Chain of bradykinin receptor 2 (BDKRB2) (P30411 whole entry): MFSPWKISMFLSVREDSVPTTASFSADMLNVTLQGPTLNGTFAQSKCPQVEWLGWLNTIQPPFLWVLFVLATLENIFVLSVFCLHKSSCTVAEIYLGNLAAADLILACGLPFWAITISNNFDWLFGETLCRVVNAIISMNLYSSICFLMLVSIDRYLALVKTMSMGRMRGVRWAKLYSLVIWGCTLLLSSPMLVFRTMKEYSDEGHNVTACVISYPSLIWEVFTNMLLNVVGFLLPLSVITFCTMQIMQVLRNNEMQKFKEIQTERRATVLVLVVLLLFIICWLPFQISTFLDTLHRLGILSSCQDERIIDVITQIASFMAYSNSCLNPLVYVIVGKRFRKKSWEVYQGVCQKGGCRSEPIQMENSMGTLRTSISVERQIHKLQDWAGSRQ
Chain of GnRH receptor (GnRHR or LHRHR) (P30968 whole entry): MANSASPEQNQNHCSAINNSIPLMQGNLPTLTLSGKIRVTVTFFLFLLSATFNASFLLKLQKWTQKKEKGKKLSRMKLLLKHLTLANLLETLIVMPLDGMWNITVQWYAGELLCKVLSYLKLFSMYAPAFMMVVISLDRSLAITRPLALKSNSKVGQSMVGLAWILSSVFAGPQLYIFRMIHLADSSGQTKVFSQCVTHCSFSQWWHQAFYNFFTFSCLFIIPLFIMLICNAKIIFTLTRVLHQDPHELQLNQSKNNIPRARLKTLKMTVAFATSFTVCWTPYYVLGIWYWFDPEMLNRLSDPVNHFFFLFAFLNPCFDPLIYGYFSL
Chain of kappa opioid receptor (OPRK1) (P41145 whole entry): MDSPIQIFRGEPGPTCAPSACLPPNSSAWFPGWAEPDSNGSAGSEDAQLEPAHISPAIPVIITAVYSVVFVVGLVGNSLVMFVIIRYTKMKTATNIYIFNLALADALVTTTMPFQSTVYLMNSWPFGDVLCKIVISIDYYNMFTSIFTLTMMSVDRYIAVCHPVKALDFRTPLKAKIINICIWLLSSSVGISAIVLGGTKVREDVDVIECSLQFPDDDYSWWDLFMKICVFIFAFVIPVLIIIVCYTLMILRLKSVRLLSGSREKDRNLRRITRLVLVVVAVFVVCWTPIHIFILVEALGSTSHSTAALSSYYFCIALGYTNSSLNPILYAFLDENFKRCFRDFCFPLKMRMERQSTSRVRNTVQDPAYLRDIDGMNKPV
Chain of PTH receptor 1 (PTHR1) (Q03431 27-593 limits assumed): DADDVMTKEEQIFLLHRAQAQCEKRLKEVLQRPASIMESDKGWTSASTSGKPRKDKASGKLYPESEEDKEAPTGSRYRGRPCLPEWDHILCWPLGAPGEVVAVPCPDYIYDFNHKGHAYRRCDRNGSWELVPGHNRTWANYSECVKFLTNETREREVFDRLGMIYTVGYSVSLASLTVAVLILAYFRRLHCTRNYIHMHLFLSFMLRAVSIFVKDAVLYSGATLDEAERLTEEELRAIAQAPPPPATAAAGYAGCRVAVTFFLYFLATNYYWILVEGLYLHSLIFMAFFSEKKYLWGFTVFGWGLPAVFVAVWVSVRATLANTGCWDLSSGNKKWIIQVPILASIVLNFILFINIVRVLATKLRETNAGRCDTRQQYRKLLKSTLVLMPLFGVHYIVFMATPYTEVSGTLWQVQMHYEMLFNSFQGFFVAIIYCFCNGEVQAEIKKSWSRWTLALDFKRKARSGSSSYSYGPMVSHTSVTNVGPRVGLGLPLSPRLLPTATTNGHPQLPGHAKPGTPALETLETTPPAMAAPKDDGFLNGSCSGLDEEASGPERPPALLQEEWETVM

Turning to Cetrorelix (positive control) (peptide), in experiment [1], the IC50 (nM), GnRHR calcium flux antagonistic assay amounted to 0.08 nM and the Max Activity % of positive control, GnRHR calcium flux antagonistic assay (% of positive control) amounted to 91.4.

Turning to “HOE140 (a BKR2 antagonist), (D-Arg)-Arg-Pro-Hyp-Gly-Thi-Ser-(D-Tic)-Oic-Arg (peptide)”, in experiment [2], the IC50 (nM), BDKRB2 arrestin antagonistic assay is 132 nM and the Max Activity % of positive control, BDKRB2 arrestin antagonistic assay (% of positive control) was found to be 100.

In experiment [3], Melanotan II peptide (positive control) gave an EC50 (nM), MC1R cAMP agonistic assay of 0.56 nM and a Max Activity % of positive control, MC1R cAMP agonistic assay (% of positive control) of 102. In experiment [4], the EC50 (nM), MC4R cAMP agonistic assay came out at 2 nM and the Max Activity % of positive control, MC4R cAMP agonistic assay (% of positive control) was 101.

In experiment [5], “PTH(1-34) peptide (positive control) (from UniProt P01270 32-65)” had an EC50 (nM), PTHR1 cAMP agonistic assay of 0.8 nM and a Max Activity % of positive control, PTHR1 cAMP agonistic assay (% of positive control) of 101.

As to “SEQ ID NO:133, Pal-VGSNTY-NH2, nongel-forming peptide”, the Fluorescent Reading (average of duplicates) is 55.4 in experiment [6] and 71 in experiment [7].

Turning to “SEQ ID NO: 203, Pal-HSY-(D-Nal)-(D-Cpa)-(D-Pal)-SY-(D-Cit)-LRP-(D-Ala)-NH2, gel-forming GnRHR antagonist analog (peptide)”, in experiment [1], the IC50 (nM), GnRHR calcium flux antagonistic assay is under 0.51 nM and the Max Activity % of positive control, GnRHR calcium flux antagonistic assay (% of positive control) was 109.

For the substance “SEQ ID NO: 214, Pal-SSPHSY-miniPEG-(D-Phe)-(D-Phe)-Trp-(D-Arg), gel-forming kappa opioid receptor agonist (peptide)”, in experiment [8], the EC50 (nM), OPRK1 cAMP agonistic assay was found to be 272 nM and the Max Activity % of positive control, OPRK1 cAMP agonistic assay (% of positive control) is 62.

As for “SEQ ID NO: 224, Pal-HSYS-Nle-EH-(D-Phe)-RWGKPV-NH2, conjugated gel-forming Afamelanotide (melanotan I) analog (peptide)”, in experiment [3], the EC50 (nM), MC1R cAMP agonistic assay is under 0.05 nM and the Max Activity % of positive control, MC1R cAMP agonistic assay (% of positive control) was 120.

In experiment [4], “SEQ ID NO: 228, Pal-HSYRC-(D-Ala)-H-(D-Phe)-RWC-NH2, conjugated gel-forming setmelanotide analog (peptide)” came in with an EC50 (nM), MC4R cAMP agonistic assay of 0.15 nM and a Max Activity % of positive control, MC4R cAMP agonistic assay (% of positive control) of 115.

On to “SEQ ID NO: 234, Pal-HSY-(D-Arg)-Arg-Pro-Hyp-Gly-Thi-Ser-(D-Tic)-Oic-Arg-NH2, conjugated bradykinin receptor antagonist (peptide)”, for which, in experiment [2], the IC50 (nM), BDKRB2 arrestin antagonistic assay was 53.3 nM and the Max Activity % of positive control, BDKRB2 arrestin antagonistic assay (% of positive control) was determined as 112.
